pKd: −log10 of the molar value.
Target: sACE2_(2).S01-IgG1 (human) (UniProt Q9BYF1)
Test: BLI

## Delta-RBD (from UniProt P0DTC2) (domain or fragment)
  pKd: 9.00

— article PMC11342882
